# Laboratory results as given in IntAct's records for PubMed 12351681.
# B1: Protein Tube (Drosophila melanogaster (Fruit fly)), P22812 (parent)
# chain: MAYGWNGCGMGVQVNGSNGAIGLSSKYSRNTELRRVEDNDIYRLAKILDENSCWRKLMSIIPKGMDVQACSGAGCLNFPAEIKKGFKYTAQDVFQIDEAANRLPPDQSKSQMMIDEWKTSGKLNERPTVGVLLQLLVQAELFSAADFVALDFLNESTPARPVDGPGALISLELLEEEMEVDNEGLSLKYQSSTATLGADAQGSVGLNLDNFEKDIVRRDKSVPQPSGNTPPIAPPRRQQRSTTNSNFATLTGTGTTSTTIPNVPNLTILNPSEQIQEPVLQPRPMNIPDLSILISNSGDLRATVSDNPSNRTSSTDPPNIPRITLLIDNSGDVNSRPNHAPAKASTATTSTASSNNLPMISALNISKGSRETLRPESRSSSSSLSKDDDDDNDGEEDGEEEYPDAFLPNLSNSEQQSSNNDSSLTTVTGTSGDNSFELTNDSSSTSNDDYACNIPDLSELQQ
# partner: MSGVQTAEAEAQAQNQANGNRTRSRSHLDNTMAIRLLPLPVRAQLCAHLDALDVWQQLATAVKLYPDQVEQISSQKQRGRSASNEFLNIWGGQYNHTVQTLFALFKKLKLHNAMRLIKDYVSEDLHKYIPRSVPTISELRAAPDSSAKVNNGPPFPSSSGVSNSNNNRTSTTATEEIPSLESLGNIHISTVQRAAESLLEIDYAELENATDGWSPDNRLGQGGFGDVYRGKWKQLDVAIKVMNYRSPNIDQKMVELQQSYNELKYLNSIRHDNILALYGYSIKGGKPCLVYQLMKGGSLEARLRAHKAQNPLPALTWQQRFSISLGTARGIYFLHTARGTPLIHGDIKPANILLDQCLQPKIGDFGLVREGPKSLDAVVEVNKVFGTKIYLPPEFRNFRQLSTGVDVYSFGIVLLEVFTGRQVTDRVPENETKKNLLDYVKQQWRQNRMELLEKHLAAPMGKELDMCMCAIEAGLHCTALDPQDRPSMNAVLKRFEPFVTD
# Variants of: B1
# Settings: with kpel_drome pll
row,effect of a mutation on the interaction,Variant
1,decreasing interaction,E50K
